Results reported in publication PMC4592949 (eLife, 2015).

B1: NCOA4 383-522-GST (domain or fragment, human, UniProt Q13772-1 383-522, looked up)
chain: SMVTEDWLVQNHQDPCKVEEVCRANEPCTSFAECVCDENCEKEALYKWLLKKEGKDKNGMPVEPKPEPEKHKDSLNMWLCPRKEVIEQTKAPKAMTPSRIADSFQVIKNSPLSEWLIRPPYKEGSPKEVPGTEDRAGKQK
notes: also called NCOA4-GST; source: E. coli BL21 (DE3) Rosetta, purified (Ni-IMAC, glutathione Sepharose, Senp1 cleavage); not shown: His6-Sumo, N-terminal, cleaved; GST, C-terminal, kept

Key:
Conditions in all cases: both partners purified
NCOA4 383-522-GST = target: B1; assay: pull-down; NCOA4-GST fragments on glutathione Sepharose 4B (in one panel pre-treated with DFO), mixed with 50 μg recombinant HERC2 fragments; 30 min at 4°C; 150 mM NaCl, 20 mM Tris pH 7.4, 2 mM DTT, 0.5% Nonidet P-40; Coomassie stain
[1] = target: T1, apoferritin purified from horse spleen (containing both FTH1 and FTL) (horse, UniProt Q8MIP0 1-182; P02791 1-175); assay: pull-down; NCOA4-GST fragments on glutathione Sepharose 4B, mixed with 50 μg apoferritin from equine spleen; 30 min at 4°C; 150 mM NaCl, 20 mM Tris pH 7.4, 2 mM DTT, 0.5% Nonidet P-40; SDS-PAGE and Coomassie stain
T1 construct: ferritin heavy chain (FTH1), horse, from spleen apoferritin; ferritin light chain (FTL), horse, from spleen apoferritin; Ferritin is a complex of 24 subunits, a mixture of heavy and light chains; also called horse spleen apoferritin; apoferritin purified from equine spleen; source: bought: Sigma A3641, apoferritin purified from equine spleen
T1 sequence (Q8MIP0 whole entry, chain 1 of 2, the tested form may be a part): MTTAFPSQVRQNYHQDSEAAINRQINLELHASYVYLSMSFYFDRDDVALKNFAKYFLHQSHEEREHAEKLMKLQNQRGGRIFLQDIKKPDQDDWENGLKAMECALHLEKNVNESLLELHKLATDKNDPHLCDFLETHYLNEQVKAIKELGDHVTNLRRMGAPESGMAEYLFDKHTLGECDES
T1 sequence (P02791 whole entry, chain 2 of 2, the tested form may be a part): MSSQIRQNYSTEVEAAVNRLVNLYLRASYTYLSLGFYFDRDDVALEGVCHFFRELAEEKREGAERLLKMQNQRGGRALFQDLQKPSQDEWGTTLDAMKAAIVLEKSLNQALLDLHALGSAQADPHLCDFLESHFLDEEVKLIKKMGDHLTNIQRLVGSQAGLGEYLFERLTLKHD

[2] = target: T2, recombinant HERC2 2540-2700 (human, UniProt O95714 2540-2700); assay: pull-down; NCOA4-GST fragments on glutathione Sepharose 4B (in one panel pre-treated with DFO), mixed with 50 μg recombinant HERC2 fragments; 30 min at 4°C; 150 mM NaCl, 20 mM Tris pH 7.4, 2 mM DTT, 0.5% Nonidet P-40; Coomassie stain
T2 construct: HERC2, residues 2540-2700; source: E. coli, purified (Ni-IMAC, Senp1 cleavage, Q-sepharose, Superdex 75); not shown: His6-Sumo, N-terminal, cleaved
T2 sequence (looked up): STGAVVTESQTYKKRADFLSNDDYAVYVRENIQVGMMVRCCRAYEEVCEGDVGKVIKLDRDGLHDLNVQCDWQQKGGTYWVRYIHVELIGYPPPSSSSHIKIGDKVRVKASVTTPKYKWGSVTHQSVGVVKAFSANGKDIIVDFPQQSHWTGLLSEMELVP

[3] = target: T3, recombinant FTH1-only ferritin complex, wild type (human, UniProt P02794 2-183); assay: pull-down; NCOA4 383-522-GST on glutathione Sepharose 4B, mixed with 50 μg recombinant FTH1-only or FTL-only complexes; 30 min at 4°C; 150 mM NaCl, 20 mM Tris pH 7.4, 2 mM DTT, 0.5% Nonidet P-40; Coomassie stain
T3 construct: Purified as 450 kDa complexes; also called FTH1^WT; FTH1-only complexes; source: E. coli, purified (Ni-IMAC, Senp1 cleavage, Q-sepharose, Superose 6 gel filtration); not shown: His6-Sumo, N-terminal, cleaved; copies: 24
T3 sequence (P02794 2-183, one chain of several): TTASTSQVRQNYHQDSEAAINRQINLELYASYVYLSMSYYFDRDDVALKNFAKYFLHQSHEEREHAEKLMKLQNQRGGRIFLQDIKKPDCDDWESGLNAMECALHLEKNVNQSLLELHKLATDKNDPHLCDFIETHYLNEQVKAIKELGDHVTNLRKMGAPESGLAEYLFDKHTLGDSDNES

Binder | binding result (NCOA4 383-522-GST) | binding result [1] | binding result [2] | binding result [3]
recombinant HERC2 CUL7 domain (amino acids 2553-2639) (domain or fragment, also called minimal CUL7 domain; source: E. coli, purified (Ni-IMAC, Senp1 cleavage, Q-sepharose, Superdex 75); not shown: His6-Sumo, N-terminal, cleaved) not shown | binds | – | – | –
KAMTPSRIADSFQVIKNSPLSEWLIRPPYKEGSPKEVPGTEDRAGKQK (domain or fragment, human, UniProt Q13772-1 475-522, looked up, source: E. coli BL21 (DE3) Rosetta, purified (Ni-IMAC, glutathione Sepharose, Senp1 cleavage); not shown: His6-Sumo, N-terminal, cleaved; GST, C-terminal, kept) [NCOA4 475-522-GST] | – | binds | – | –
B1 | – | binds | binds | binds
